# Measurements published in patent US20210130838.
# Legend:
# Test in all cases: cell_activity
# [1] = test system: BsCas12a (Butyrivibrio sp.?); conditions: PAM TTTV
# [2] = test system: CMaCas12a; conditions: PAM TTTV; rice protoplasts
# [3] = test system: MAD7; conditions: PAM TTTV
# [4] = test system: TsCas12a (Thiomicrospira sp.?); conditions: PAM TTTV; stable transgenic rice
# [5] = test system: BoCas12a; conditions: PAM TTTV; rice protoplasts
# [6] = test system: Lb5Cas12a; conditions: PAM TTTV; rice protoplasts
# [7] = test system: Mb2Cas12a
# [8] = test system: MbCas12a; conditions: PAM TTTV; rice protoplasts
# [9] = test system: MlCas12a; conditions: PAM TTTV; rice protoplasts
sequence,measurement,setting,value
AAGAAGGGUUAUGGCCAAUGCUU / TCCATTTGTTTGAAGAAGGGTTATGGCCAATGCTTGCCC / GGGCAAGCATTGGCCATAACCCTTCTTCAAACAAATGGA [crRNA OsEPFL9 spacer 23 nt ; OsEPFL9-TTTV target],activity,[1]; stable transgenic rice,> 80 % editing
same,activity,[2],5.1 % editing
same,activity,[3]; stable transgenic rice,> 80 % editing
same,activity,[4],> 80 % editing
CAGAAAGAGAAGGAGGCACAGAU / CTTTTCCAGAAAGAGAAGGAGGCACAGATCTTGCCGT / ACGGCAAGATCTGTGCCTCCTTCTCTTTCTGGAAAAG [crRNA OsDEP1-TTTV spacer (inferred) ; OsDEP1-TTTV target],activity,[5],7.8 % editing
same,activity,[1]; rice protoplasts,20.1 % editing
same,activity,[2],2.7 % editing
same,activity,[6],28.8 % editing
same,activity,[3]; rice protoplasts,34.1 % editing
same,activity,"[7]; PAM TTTV, rice protoplasts",19.7 % editing
same,activity,[8],7.2 % editing
same,activity,[9],13.9 % editing
CUCAAGGUGAGCGCCCCGCGGCG / GTTCCTCAAGGTGAGCGCCCCGCGGCGGCGGCGGCTG / CAGCCGCCGCCGCCGCGGGGCGCTCACCTTGAGGAAC [crRNA OsDEP1-TTV spacer (inferred) ; OsDEP1-TTV target],activity,"[7]; PAM TTV, 22 C",6.4 % indels
CUGGGCUCGGCGUCCUCGACGUC / GAGTTGCTGGGCTCGGCGTCCTCGACGTCGTCCTCGCCG / CGGCGAGGACGACGTCGAGGACGCCGAGCCCAGCAACTC [crRNA OsR005-TTV spacer (inferred) ; OsR005-TTV target],activity,"[7]; PAM TTV, 22 C",8.3 % indels
